Laboratory results from PMC2172558 (The Journal of Cell Biology, 2004).

Biological target: T1, recombinant, purified Xenopus β-catenin (Xenopus, UniProt P26233 1-781)
T1 sequence: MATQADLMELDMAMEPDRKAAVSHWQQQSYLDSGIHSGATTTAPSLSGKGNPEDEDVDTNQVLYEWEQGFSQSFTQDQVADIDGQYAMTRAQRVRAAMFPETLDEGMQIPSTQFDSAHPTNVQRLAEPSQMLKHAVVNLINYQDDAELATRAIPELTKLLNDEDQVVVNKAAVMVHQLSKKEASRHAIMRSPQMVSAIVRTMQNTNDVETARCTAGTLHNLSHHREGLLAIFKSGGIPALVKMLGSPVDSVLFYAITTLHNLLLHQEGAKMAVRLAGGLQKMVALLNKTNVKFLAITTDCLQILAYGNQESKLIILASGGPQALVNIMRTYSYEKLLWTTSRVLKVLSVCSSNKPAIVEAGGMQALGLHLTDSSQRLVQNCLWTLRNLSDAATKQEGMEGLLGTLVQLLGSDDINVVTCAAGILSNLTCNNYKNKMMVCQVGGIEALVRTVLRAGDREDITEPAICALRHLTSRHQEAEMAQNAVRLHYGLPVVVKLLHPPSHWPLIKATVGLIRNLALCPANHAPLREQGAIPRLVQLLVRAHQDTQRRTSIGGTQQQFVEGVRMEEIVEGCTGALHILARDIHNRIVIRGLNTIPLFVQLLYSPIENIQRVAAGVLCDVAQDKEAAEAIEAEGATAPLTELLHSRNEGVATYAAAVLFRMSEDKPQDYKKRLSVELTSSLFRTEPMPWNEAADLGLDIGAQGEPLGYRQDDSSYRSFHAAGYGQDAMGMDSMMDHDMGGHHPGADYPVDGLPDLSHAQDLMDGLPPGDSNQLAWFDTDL
Assay: pull-down

B1: Xenopus C-cadherin cytoplasmic domain GST fusion protein (domain or fragment)
chain: not shown
B1: binds.
